Test results published in paper PMC6561935, “Hsp90 middle domain phosphorylation initiates a complex conformational program to recruit the ATPase-stimulating cochaperone Aha1” (Nature Communications, 2019).

Key:
[1] = target: purified Hsp90-H210A (human) (UniProt P07900); test: ITC; Supplementary Table 2, obtained separately: 20 mM Tris pH 7.5, 5 mM NaCl, 1 mM EDTA, 30 °C
Hsp90-H210A (human) = Hsp90-H210A (human) (UniProt P07900); test: ITC; 20 mM Tris pH 7.5, 5 mM NaCl, 1 mM EDTA, 30 °C; Hsp90 listed as protein, hAha1 as ligand; at least 3 experiments

Row | Substance | fold increase of Kd against wild-type Hsp90 [1] [fold] | Kd (Hsp90-H210A (human)) [µM] | stoichiometry N (Hsp90-H210A (human))
1 | purified full-length Aha1 (from UniProt O95433 1-338) (natural protein) | 2 |  | 
2 | Human Aha1 (wild-type, full-length) (from UniProt O95433 1-338) (natural protein) |  | 14.6 | 0.37
